The results in this text go back to US20230038638A1, “COMPLEMENT FACTOR I-RELATED COMPOSITIONS AND METHODS” (published 2023).

Positions count from the first letter of the chain named.

The target of test [1] is T1, human C4b (human) (UniProt P0C0L4).
T1 sequence: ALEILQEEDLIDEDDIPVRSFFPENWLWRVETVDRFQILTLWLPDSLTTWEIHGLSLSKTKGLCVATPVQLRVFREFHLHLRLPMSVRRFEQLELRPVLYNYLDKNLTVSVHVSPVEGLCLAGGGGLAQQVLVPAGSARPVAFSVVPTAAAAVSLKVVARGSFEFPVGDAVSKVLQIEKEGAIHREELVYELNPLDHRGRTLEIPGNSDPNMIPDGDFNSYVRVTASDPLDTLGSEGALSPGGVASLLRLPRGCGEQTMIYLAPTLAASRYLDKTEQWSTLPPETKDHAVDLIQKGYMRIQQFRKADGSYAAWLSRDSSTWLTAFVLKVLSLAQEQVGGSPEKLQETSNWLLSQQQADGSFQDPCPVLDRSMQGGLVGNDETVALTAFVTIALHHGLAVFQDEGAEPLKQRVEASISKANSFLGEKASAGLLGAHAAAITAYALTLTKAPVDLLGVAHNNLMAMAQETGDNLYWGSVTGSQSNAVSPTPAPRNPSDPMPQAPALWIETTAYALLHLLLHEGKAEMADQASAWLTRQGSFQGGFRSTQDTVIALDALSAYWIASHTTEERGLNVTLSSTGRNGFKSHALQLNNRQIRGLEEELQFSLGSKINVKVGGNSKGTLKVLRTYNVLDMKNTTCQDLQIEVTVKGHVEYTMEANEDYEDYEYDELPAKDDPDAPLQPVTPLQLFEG

Test [2] addresses soluble human C3b (human) (UniProt P01024).
Test [3] deals with T2, human C4b (human) (UniProt P0C0L5).
T2 sequence: T1 sequence with A151T, D317G, P364L, C365S, L368I, D369H, N420S, V451A, L454R, S530A

Sequence of Δ(K1-P305); GGSSGG (SEQ ID NO: 6); fH_CCP2-3 (enzyme) (chain): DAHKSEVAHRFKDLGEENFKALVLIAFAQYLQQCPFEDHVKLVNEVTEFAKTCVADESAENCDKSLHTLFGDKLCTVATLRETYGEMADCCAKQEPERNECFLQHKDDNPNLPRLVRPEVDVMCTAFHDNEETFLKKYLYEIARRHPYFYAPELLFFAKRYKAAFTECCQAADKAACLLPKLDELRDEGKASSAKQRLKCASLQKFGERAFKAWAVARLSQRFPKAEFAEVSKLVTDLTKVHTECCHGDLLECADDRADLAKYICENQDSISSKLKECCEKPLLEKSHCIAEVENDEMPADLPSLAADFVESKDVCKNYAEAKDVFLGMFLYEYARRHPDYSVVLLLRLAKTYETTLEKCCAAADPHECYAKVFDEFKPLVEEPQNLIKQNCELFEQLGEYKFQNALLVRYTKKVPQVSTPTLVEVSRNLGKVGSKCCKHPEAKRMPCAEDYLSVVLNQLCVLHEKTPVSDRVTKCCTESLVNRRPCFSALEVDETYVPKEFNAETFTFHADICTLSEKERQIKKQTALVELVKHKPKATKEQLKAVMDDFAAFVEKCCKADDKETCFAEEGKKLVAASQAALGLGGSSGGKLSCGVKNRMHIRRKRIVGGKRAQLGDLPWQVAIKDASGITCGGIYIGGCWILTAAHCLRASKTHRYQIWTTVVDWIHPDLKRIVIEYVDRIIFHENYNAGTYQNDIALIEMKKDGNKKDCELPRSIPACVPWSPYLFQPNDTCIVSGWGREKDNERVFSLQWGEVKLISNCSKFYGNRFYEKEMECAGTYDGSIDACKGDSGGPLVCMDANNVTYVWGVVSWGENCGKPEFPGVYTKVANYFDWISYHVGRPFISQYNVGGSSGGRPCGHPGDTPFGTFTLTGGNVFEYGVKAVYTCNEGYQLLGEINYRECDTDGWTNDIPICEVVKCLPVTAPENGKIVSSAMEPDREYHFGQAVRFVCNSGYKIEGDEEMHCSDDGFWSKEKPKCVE
Sequence of WT; GGSSGG (SEQ ID NO: 6); CCP_2-4 (enzyme) (chain): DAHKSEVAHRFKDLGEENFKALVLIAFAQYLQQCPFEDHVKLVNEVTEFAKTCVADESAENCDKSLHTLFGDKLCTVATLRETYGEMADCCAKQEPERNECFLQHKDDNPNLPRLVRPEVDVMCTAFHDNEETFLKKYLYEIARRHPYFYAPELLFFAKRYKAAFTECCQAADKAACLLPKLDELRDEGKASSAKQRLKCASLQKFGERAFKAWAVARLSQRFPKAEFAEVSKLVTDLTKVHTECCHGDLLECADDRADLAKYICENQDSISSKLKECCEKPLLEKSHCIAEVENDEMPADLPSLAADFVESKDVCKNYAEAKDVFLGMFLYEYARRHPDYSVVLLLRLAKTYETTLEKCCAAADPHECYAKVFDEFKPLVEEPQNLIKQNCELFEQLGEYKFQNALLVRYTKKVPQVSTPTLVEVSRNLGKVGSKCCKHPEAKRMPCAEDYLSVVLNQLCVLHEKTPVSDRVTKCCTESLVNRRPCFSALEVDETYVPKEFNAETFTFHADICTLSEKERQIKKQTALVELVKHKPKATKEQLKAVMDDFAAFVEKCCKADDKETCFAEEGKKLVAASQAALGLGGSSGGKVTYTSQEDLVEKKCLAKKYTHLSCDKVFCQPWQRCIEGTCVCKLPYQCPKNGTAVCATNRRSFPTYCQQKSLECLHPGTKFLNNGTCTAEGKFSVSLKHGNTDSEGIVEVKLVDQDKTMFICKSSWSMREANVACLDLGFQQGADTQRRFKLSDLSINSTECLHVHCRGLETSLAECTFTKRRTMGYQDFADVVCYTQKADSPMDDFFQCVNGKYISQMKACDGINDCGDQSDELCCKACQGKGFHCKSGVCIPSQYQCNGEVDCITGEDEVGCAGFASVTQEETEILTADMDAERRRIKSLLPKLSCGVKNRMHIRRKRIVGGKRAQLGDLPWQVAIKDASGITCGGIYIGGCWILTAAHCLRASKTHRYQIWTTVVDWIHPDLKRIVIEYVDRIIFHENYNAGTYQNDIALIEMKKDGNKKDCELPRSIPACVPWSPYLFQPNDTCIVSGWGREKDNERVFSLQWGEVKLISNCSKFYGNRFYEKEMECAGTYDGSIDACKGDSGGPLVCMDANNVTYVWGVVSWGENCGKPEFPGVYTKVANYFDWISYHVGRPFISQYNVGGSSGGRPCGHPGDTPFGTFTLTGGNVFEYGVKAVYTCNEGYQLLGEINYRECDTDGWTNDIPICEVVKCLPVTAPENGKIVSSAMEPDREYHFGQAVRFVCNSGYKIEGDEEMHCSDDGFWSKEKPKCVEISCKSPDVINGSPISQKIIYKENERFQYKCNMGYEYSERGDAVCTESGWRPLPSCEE
Sequence of Δ(K1-P305); GGSSGG (SEQ ID NO: 6); fH_CCP2-4 (enzyme) (chain): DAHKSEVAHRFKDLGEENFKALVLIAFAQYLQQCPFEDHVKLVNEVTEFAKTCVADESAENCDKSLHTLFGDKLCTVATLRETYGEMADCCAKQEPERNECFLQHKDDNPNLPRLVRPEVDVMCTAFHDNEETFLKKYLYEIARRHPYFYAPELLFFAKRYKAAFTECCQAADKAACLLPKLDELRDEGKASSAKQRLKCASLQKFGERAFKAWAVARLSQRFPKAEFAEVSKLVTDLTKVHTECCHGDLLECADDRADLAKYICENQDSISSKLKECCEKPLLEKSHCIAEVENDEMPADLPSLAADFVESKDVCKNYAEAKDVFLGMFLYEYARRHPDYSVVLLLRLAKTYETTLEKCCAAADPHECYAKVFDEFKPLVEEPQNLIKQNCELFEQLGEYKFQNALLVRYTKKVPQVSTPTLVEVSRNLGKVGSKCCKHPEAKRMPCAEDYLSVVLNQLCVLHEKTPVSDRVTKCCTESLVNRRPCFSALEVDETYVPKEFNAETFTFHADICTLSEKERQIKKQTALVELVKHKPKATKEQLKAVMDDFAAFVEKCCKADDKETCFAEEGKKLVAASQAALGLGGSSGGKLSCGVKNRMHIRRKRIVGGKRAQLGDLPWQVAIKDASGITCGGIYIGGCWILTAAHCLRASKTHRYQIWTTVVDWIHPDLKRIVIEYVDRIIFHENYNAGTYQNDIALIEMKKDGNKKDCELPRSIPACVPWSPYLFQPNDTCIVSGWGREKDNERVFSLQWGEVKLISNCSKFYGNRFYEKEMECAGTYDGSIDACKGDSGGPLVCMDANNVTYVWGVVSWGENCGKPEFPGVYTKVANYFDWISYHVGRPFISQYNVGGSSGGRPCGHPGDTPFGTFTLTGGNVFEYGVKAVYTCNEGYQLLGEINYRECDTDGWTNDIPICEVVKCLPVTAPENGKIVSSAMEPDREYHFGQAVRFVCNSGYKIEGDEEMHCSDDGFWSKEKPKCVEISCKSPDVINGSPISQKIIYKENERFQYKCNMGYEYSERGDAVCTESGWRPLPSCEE
Sequence of WT; GGSSGG (SEQ ID NO: 6); CCP_1-4 (enzyme) (chain): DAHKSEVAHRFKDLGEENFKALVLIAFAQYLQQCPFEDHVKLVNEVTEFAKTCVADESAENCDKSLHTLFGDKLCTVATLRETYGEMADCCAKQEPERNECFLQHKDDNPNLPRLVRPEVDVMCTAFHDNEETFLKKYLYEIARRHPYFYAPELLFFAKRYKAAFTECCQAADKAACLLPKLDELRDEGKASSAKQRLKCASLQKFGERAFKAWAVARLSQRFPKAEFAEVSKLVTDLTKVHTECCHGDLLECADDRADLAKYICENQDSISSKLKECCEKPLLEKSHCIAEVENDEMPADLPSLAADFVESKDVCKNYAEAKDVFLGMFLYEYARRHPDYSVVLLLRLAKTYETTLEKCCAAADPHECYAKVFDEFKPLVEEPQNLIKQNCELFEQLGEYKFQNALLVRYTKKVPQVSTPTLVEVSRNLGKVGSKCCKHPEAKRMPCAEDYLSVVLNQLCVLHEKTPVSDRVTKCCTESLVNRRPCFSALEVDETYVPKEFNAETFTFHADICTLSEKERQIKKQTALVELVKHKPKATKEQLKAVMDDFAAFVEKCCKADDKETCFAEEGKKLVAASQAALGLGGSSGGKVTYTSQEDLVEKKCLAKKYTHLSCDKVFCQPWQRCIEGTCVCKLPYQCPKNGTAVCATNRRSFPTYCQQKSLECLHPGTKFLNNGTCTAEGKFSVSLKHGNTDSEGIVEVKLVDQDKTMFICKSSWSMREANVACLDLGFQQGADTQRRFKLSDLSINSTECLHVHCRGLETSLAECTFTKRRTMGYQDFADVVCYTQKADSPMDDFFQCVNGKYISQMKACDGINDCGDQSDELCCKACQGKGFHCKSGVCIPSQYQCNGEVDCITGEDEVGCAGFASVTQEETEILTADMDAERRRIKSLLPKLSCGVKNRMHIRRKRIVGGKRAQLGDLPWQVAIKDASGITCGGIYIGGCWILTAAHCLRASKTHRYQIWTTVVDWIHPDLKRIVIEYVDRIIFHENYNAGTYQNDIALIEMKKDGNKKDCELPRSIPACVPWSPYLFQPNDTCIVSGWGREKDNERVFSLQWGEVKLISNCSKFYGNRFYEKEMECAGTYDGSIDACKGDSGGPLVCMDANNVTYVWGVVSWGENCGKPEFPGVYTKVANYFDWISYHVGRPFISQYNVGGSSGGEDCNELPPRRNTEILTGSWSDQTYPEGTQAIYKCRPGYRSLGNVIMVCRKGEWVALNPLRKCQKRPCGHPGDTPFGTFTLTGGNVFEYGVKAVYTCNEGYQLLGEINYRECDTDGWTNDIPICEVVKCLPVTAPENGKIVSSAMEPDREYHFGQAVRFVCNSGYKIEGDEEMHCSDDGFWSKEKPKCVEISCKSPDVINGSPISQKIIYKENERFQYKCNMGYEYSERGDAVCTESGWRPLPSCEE

Regarding CFI-HSA D425E (enzyme), in the test with human C4b (human) [1], the C4b Screen Ref Fold (fold of CFI-HSA wild type) was determined as 1.75. For the same substance, in test [2], the iC3b Screen Ref Fold (fold of CFI-HSA wild type) came out at 1.52.
The like results for CFI-HSA D425F (enzyme) were, in that order, 1.6 and 1.91.
Consider CFI-HSA D425H (enzyme), for which the C4b Screen Ref Fold (fold of CFI-HSA wild type) with human C4b (human) [1] was found to be 1.79. Besides, the iC3b Screen Ref Fold (fold of CFI-HSA wild type) in test [2] came out at 1.75.
For CFI-HSA D425I (enzyme), the C4b Screen Ref Fold (fold of CFI-HSA wild type) with human C4b (human) [1] amounted to 1.38. In addition, the iC3b Screen Ref Fold (fold of CFI-HSA wild type) in test [2] came out at 1.86.
With CFI-HSA D425L (enzyme), the C4b Screen Ref Fold (fold of CFI-HSA wild type) with human C4b (human) [1] is 1.46. Besides, in test [2], the iC3b Screen Ref Fold (fold of CFI-HSA wild type) was found to be 0.94.
For the substance CFI-HSA D425M (enzyme), the C4b Screen Ref Fold (fold of CFI-HSA wild type) in the test with human C4b (human) [1] was determined as 2.18. The iC3b Screen Ref Fold (fold of CFI-HSA wild type) in test [2] was found to be 0.91.
In the case of CFI-HSA D425N (enzyme), the C4b Screen Ref Fold (fold of CFI-HSA wild type) in the test with human C4b (human) [1] worked out at 1.54. The iC3b Screen Ref Fold (fold of CFI-HSA wild type) in test [2] worked out at 1.66.
For CFI-HSA D425P (enzyme), in that order: 0.29 and 0.72.
With CFI-HSA D425Q (enzyme), in the test with human C4b (human) [1], the C4b Screen Ref Fold (fold of CFI-HSA wild type) was 1.83. Further, the iC3b Screen Ref Fold (fold of CFI-HSA wild type) in test [2] was 1.87.
For CFI-HSA D425S (enzyme), in the test with human C4b (human) [1], the C4b Screen Ref Fold (fold of CFI-HSA wild type) worked out at 1.13. The iC3b Screen Ref Fold (fold of CFI-HSA wild type) in test [2] was 2.21.
For CFI-HSA D425T (enzyme), in that order: 2.05 and 2.16.
For the substance CFI-HSA D425V (enzyme), the C4b Screen Ref Fold (fold of CFI-HSA wild type) in the test with human C4b (human) [1] was found to be 2.51. For the same substance, the iC3b Screen Ref Fold (fold of CFI-HSA wild type) in test [2] is 0.98.
Regarding CFI-HSA D425W (enzyme), the C4b Screen Ref Fold (fold of CFI-HSA wild type) with human C4b (human) [1] amounted to 0.89. For the same substance, in test [2], the iC3b Screen Ref Fold (fold of CFI-HSA wild type) amounted to 1.59.
As to CFI-HSA D425Y (enzyme), the C4b Screen Ref Fold (fold of CFI-HSA wild type) in the test with human C4b (human) [1] was 2.87. In addition, the iC3b Screen Ref Fold (fold of CFI-HSA wild type) in test [2] worked out at 1.15.
CFI-HSA D506F (enzyme): the C4b Screen Ref Fold (fold of CFI-HSA wild type) with human C4b (human) [1] came out at 0.35. Besides, the iC3b Screen Ref Fold (fold of CFI-HSA wild type) in test [2] was -0.03.
The like results for CFI-HSA D506H (enzyme) were, in that order, 0.31 and 0.
With CFI-HSA D506I (enzyme), in the test with human C4b (human) [1], the C4b Screen Ref Fold (fold of CFI-HSA wild type) stood at 0.16. Besides, in test [2], the iC3b Screen Ref Fold (fold of CFI-HSA wild type) is -0.02.
On to CFI-HSA D506K (enzyme), for which the C4b Screen Ref Fold (fold of CFI-HSA wild type) in the test with human C4b (human) [1] amounted to 0.3. Besides, in test [2], the iC3b Screen Ref Fold (fold of CFI-HSA wild type) stood at 0.03.
Regarding CFI-HSA D506L (enzyme), in the test with human C4b (human) [1], the C4b Screen Ref Fold (fold of CFI-HSA wild type) was determined as 0.41. The iC3b Screen Ref Fold (fold of CFI-HSA wild type) in test [2] was -0.03.
Turning to CFI-HSA D506M (enzyme), in the test with human C4b (human) [1], the C4b Screen Ref Fold (fold of CFI-HSA wild type) amounted to 0.05. Moreover, the iC3b Screen Ref Fold (fold of CFI-HSA wild type) in test [2] turned out to be 0.01.
As to CFI-HSA D506N (enzyme), the C4b Screen Ref Fold (fold of CFI-HSA wild type) with human C4b (human) [1] stood at 0.03. Moreover, in test [2], the iC3b Screen Ref Fold (fold of CFI-HSA wild type) was found to be 0.05.
For CFI-HSA D506P (enzyme), the C4b Screen Ref Fold (fold of CFI-HSA wild type) in the test with human C4b (human) [1] was found to be 0.18. In test [2], the iC3b Screen Ref Fold (fold of CFI-HSA wild type) was -0.04.
For the substance CFI-HSA D506Q (enzyme), the C4b Screen Ref Fold (fold of CFI-HSA wild type) in the test with human C4b (human) [1] is 0.47. Further, in test [2], the iC3b Screen Ref Fold (fold of CFI-HSA wild type) was -0.02.
Regarding CFI-HSA D506S (enzyme), in the test with human C4b (human) [1], the C4b Screen Ref Fold (fold of CFI-HSA wild type) is -0.02. Further, the iC3b Screen Ref Fold (fold of CFI-HSA wild type) in test [2] turned out to be 0.
Take CFI-HSA D506T (enzyme): the C4b Screen Ref Fold (fold of CFI-HSA wild type) in the test with human C4b (human) [1] amounted to 0.39. The iC3b Screen Ref Fold (fold of CFI-HSA wild type) in test [2] stood at 0.04.
The like results for CFI-HSA D506W (enzyme) were, in that order, 0.01 and 0.03.
With CFI-HSA D506Y (enzyme), the C4b Screen Ref Fold (fold of CFI-HSA wild type) with human C4b (human) [1] was 0.02. Further, the iC3b Screen Ref Fold (fold of CFI-HSA wild type) in test [2] was -0.05.
Consider CFI-HSA E457G; E461Q; F464Y (enzyme), for which the C4b Screen Ref Fold (fold of CFI-HSA wild type) with human C4b (human) [1] was determined as 6.56. Also, in test [2], the iC3b Screen Ref Fold (fold of CFI-HSA wild type) is 1.25.
The like results for CFI-HSA E457G; E461Q; R462K (enzyme) were, in that order, 6.74 and 1.54.
The like results for CFI-HSA E457G; F464Y (enzyme) were, in that order, 5.55 and 1.31.
In the case of CFI-HSA E457G; N531G (enzyme), the C4b Screen Ref Fold (fold of CFI-HSA wild type) with human C4b (human) [1] is 6.5. Further, the iC3b Screen Ref Fold (fold of CFI-HSA wild type) in test [2] was found to be 0.88.
The like results for CFI-HSA E457G; R462K (enzyme) were, in that order, 4.33 and 1.11.
Take “CFI-HSA variant Δ(K1-P305); 1317D-R318D-R319D-K320D-R321K (enzyme)”: the C4b Screen Ref Fold (fold vs CFI-HSA wild type) in the test with human C4b (human) [3] is 0.06. Moreover, the iC3b Screen Ref Fold (fold vs CFI-HSA wild type) in test [2] is 0.03.
“CFI-HSA variant Δ(K1-P305); N531G (enzyme)”: the C4b Screen Ref Fold (fold vs CFI-HSA wild type) in the test with human C4b (human) [3] worked out at 0.02. In test [2], the iC3b Screen Ref Fold (fold vs CFI-HSA wild type) came out at 0.03.
For “CFI-HSA variant Δ(K1-P305); N531G; P535A (enzyme)”, in the test with human C4b (human) [3], the C4b Screen Ref Fold (fold vs CFI-HSA wild type) was found to be 0.15. Besides, the iC3b Screen Ref Fold (fold vs CFI-HSA wild type) in test [2] came out at 0.05.
Take “CFI-HSA variant Δ(K1-P305); Y408L; N531G (enzyme)”: in the test with human C4b (human) [3], the C4b Screen Ref Fold (fold vs CFI-HSA wild type) came to 0.14. In test [2], the iC3b Screen Ref Fold (fold vs CFI-HSA wild type) was 0.05.
The like results for “CFI-HSA variant Δ(K1-P305); Y408L; N531G; E457G; E461Q; R462K; F464Y (enzyme)” were, in that order, 0.01 and 0.03.
On to CFI-HSA variant Δ(S308) (enzyme), for which the C4b Screen Ref Fold (fold relative to CFI-HSA wild type) in the test with human C4b (human) [3] was determined as 0.21. Further, the iC3b Screen Ref Fold (fold relative to CFI-HSA wild type) in test [2] was -0.01.
As for CFI-HSA variant Δ(V565) (enzyme), the C4b Screen Ref Fold (fold relative to CFI-HSA wild type) with human C4b (human) [3] worked out at 1.57. In addition, in test [2], the iC3b Screen Ref Fold (fold relative to CFI-HSA wild type) amounted to 0.54.
On to “WT; GGSSGG (SEQ ID NO: 6); CCP_1-4 (enzyme)”, for which the C4b Screen Ref Fold (fold vs CFI-HSA wild type) in the test with human C4b (human) [3] turned out to be 0.21. The iC3b Screen Ref Fold (fold vs CFI-HSA wild type) in test [2] turned out to be 0.02.
The like results for “WT; GGSSGG (SEQ ID NO: 6); CCP_1-4; GGSS(6) + G; compstatin (enzyme)” were, in that order, 0.25 and 0.11.
The like results for “WT; GGSSGG (SEQ ID NO: 6); CCP_1-5; GGSS(3) + GGG; compstatin (enzyme)” were, in that order, 0.25 and 0.03.
The like results for “WT; GGSSGG (SEQ ID NO: 6); CCP_2-4 (enzyme)” were, in that order, 0.38 and 0.
Take fH_CCP1-4; GGGGSS(7); wt hCFI (enzyme): the C4b Screen Ref Fold (fold vs CFI-HSA wild type) with human C4b (human) [3] was determined as 1.21. The iC3b Screen Ref Fold (fold vs CFI-HSA wild type) in test [2] stood at 0.77.
The like results for fH_CCP1-4; GGGGSS(9); wt hCFI (enzyme) were, in that order, 0.97 and 0.66.
With fH_CCP1-4; GGSS(11); wt hCFI (enzyme), in the test with human C4b (human) [3], the C4b Screen Ref Fold (fold vs CFI-HSA wild type) was 1.49. Besides, the iC3b Screen Ref Fold (fold vs CFI-HSA wild type) in test [2] turned out to be 0.69.
The like results for fH_CCP1-4; GGSS(13); wt hCFI (enzyme) were, in that order, 1.63 and 0.6.
For “Δ(K1-P305); GGSSGG (SEQ ID NO: 6); fH_CCP1-4 (enzyme)”, in that order: 0.15 and 0.04.
Consider “Δ(K1-P305); GGSSGG (SEQ ID NO: 6); fH_CCP2-3 (enzyme)”, for which the C4b Screen Ref Fold (fold vs CFI-HSA wild type) with human C4b (human) [3] stood at 0.05. Besides, the iC3b Screen Ref Fold (fold vs CFI-HSA wild type) in test [2] turned out to be 0.01.
In the case of “Δ(K1-P305); GGSSGG (SEQ ID NO: 6); fH_CCP2-4 (enzyme)”, the C4b Screen Ref Fold (fold vs CFI-HSA wild type) with human C4b (human) [3] was 0.06. In addition, the iC3b Screen Ref Fold (fold vs CFI-HSA wild type) in test [2] was found to be 0.03.
